# Measured values reported in publication PMC9482650, “Quantitative fragmentomics allow affinity mapping of interactomes” (Nature Communications, 2022).
# T1: APBA2_1, Q99767
# T1 sequence (Q99767 563-664, limits assumed, looked up): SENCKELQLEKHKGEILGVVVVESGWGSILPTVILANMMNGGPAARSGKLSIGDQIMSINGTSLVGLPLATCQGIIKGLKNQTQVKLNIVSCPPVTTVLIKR
# T2: DLG3_1, Q92796
# T2 sequence (Q92796 125-227, limits assumed, looked up): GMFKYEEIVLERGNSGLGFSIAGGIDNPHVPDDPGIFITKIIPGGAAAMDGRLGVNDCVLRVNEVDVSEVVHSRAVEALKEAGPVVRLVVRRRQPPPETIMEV
# T3: DLG3_2, Q92796
# T3 sequence (Q92796 221-321, limits assumed, looked up): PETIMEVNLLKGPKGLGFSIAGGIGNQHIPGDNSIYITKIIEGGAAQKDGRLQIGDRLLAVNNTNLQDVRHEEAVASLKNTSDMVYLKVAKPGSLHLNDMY
# T4: MPDZ_10, O75970
# T4 sequence (O75970 1624-1722, limits assumed, looked up): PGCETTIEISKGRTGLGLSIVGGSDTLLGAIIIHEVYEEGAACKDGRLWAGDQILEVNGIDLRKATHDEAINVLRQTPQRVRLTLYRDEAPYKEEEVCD
# T5: NHERF3_1, Q5T2W1
# T5 sequence (Q5T2W1 4-100, limits assumed, looked up): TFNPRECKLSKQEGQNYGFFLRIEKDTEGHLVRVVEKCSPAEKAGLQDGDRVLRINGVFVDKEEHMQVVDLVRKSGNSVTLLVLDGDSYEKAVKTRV
# T6: RHPN1, Q8TCX5
# T6 sequence (Q8TCX5 508-602, limits assumed, looked up): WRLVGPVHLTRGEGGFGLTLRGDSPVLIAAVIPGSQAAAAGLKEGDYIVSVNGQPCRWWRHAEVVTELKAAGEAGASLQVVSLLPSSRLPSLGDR
# T7: SHANK1, Q9Y566
# T7 sequence (Q9Y566 658-767, limits assumed, looked up): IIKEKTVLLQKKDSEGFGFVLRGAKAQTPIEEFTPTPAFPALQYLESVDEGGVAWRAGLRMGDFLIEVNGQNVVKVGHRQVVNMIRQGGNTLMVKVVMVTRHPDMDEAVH
# T8: SNTA1, Q13424
# T8 sequence (Q13424 82-180, limits assumed, looked up): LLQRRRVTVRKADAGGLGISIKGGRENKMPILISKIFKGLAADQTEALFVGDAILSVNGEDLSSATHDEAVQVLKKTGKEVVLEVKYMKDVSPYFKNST
# T9: SNTG1, Q9NSN8
# T9 sequence (Q9NSN8 52-150, limits assumed, looked up): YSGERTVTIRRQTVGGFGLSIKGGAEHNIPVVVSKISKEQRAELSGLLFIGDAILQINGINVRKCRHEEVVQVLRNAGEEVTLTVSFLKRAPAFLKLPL
# T10: SYNJ2BP, P57105
# T10 sequence (P57105 8-110, limits assumed, looked up): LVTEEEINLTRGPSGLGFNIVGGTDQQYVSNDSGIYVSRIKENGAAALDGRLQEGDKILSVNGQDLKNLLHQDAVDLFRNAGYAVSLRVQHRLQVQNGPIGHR
# T11: TJP3_3, O95049
# T11 sequence (O95049 375-456, limits assumed, looked up): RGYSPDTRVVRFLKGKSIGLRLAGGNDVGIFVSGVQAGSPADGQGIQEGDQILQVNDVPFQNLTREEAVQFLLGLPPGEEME
# T12: TX1BP3, O14907
# T12 sequence (O14907 10-122, limits assumed, looked up): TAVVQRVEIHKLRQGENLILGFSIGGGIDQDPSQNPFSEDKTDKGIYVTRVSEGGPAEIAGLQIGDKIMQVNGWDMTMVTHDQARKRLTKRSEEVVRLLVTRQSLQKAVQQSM
# How the values were obtained:
# Test in all cases: holdup assay
# Parameters in all cases: key: below the threshold = too weak to quantify, mostly under pKd 3.1 to 4
# Details in all cases: plain residues with an end cap or a label only (N-terminal biotin on a linker: ado-ado)
# APBA2_1, Q99767 = target: T1, APBA2_1, Q99767
# ARHGEF12, Q9NZN5-2 = target: ARHGEF12, Q9NZN5-2
# CASK, O14936 = target: CASK, O14936
# DLG3_1, Q92796 = target: T2, DLG3_1, Q92796
# DLG3_2, Q92796 = target: T3, DLG3_2, Q92796
# DLG5_1, Q8TDM6 = target: DLG5_1, Q8TDM6
# FRMPD3, Q5JV73 = target: FRMPD3, Q5JV73
# GOPC, Q9HD26 = target: GOPC, Q9HD26
# GRASP, Q7Z6J2 = target: GRASP, Q7Z6J2
# GRID2IP_1, A4D2P6 = target: GRID2IP_1, A4D2P6
# IL16_4, Q14005 = target: IL16_4, Q14005
# LIMK2, P53671 = target: LIMK2, P53671
# MAGI1_2, Q96QZ7 = target: MAGI1_2, Q96QZ7
# MAST2, Q6P0Q8 = target: MAST2, Q6P0Q8
# MPDZ_10, O75970 = target: T4, MPDZ_10, O75970
# NHERF3_1, Q5T2W1 = target: T5, NHERF3_1, Q5T2W1
# NHERF4_1, Q86UT5-2 = target: NHERF4_1, Q86UT5-2
# PDZRN4_1, Q6ZMN7 = target: PDZRN4_1, Q6ZMN7
# RHPN1, Q8TCX5 = target: T6, RHPN1, Q8TCX5
# SCRIB_1, Q14160 = target: SCRIB_1, Q14160
# SHANK1, Q9Y566 = target: T7, SHANK1, Q9Y566
# SNTA1, Q13424 = target: T8, SNTA1, Q13424
# SNTG1, Q9NSN8 = target: T9, SNTG1, Q9NSN8
# SYNJ2BP, P57105 = target: T10, SYNJ2BP, P57105
# TJP3_3, O95049 = target: T11, TJP3_3, O95049
# TX1BP3, O14907 = target: T12, TX1BP3, O14907
# Chain of IL16_4, Q14005 (Q14005 1229-1329): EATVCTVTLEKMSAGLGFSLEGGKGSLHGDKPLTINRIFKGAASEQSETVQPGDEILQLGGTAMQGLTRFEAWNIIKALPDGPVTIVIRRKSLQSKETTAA
# Chain of GRID2IP_1, A4D2P6 (A4D2P6 1-87): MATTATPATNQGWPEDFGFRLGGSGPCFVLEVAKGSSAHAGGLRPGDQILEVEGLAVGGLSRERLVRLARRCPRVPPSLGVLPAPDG
# Chain of SCRIB_1, Q14160 (Q14160 718-814): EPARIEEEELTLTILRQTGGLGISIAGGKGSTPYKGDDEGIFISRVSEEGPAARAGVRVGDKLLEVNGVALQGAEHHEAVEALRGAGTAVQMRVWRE
# Chain of CASK, O14936 (O14936 487-570): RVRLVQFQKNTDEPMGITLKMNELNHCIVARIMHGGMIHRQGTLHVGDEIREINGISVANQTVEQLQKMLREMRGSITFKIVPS
# Chain of DLG5_1, Q8TDM6 (Q8TDM6 617-713): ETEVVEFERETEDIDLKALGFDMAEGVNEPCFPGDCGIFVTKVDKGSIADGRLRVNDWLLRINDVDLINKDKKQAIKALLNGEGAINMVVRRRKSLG
# Chain of PDZRN4_1, Q6ZMN7 (Q6ZMN7 213-318): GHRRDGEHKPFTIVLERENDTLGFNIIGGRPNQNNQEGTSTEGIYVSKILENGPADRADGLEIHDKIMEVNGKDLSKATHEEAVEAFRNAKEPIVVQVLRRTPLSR
# Chain of LIMK2, P53671 (P53671 143-248): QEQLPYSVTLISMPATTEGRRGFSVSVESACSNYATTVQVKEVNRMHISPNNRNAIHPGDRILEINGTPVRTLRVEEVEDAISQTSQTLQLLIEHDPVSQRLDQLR
# Chain of GRASP, Q7Z6J2 (Q7Z6J2 96-193): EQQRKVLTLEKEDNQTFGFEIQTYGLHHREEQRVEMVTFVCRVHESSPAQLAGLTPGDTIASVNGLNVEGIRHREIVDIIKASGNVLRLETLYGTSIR
# Chain of MAST2, Q6P0Q8 (Q6P0Q8 1099-1202): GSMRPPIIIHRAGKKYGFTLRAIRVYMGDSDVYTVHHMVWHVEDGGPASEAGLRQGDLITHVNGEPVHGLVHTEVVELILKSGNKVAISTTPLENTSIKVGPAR
# Chain of MAGI1_2, Q96QZ7 (Q96QZ7 456-580): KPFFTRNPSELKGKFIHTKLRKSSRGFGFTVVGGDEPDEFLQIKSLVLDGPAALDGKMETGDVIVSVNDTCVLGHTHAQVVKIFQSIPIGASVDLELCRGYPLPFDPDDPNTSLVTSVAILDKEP
# Chain of ARHGEF12, Q9NZN5-2 (Q9NZN5 other isoform, or with tags, fused parts or gaps): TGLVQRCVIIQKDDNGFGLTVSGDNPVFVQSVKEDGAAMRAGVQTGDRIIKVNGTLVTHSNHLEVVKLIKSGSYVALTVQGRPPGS
# Chain of FRMPD3, Q5JV73 (Q5JV73 12-100): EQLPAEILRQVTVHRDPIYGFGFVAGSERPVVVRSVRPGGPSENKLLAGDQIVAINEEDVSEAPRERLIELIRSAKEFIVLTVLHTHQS
# Chain of NHERF4_1, Q86UT5-2 (Q86UT5 other isoform, or with tags, fused parts or gaps): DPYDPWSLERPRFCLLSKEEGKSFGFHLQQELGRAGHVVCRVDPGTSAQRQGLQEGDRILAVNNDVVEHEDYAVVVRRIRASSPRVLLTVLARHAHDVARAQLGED
Binder,"pKd (APBA2_1, Q99767)","pKd (ARHGEF12, Q9NZN5-2)","pKd (CASK, O14936)","pKd (DLG3_1, Q92796)","pKd (DLG3_2, Q92796)","pKd (DLG5_1, Q8TDM6)","pKd (FRMPD3, Q5JV73)","pKd (GOPC, Q9HD26)","pKd (GRASP, Q7Z6J2)","pKd (GRID2IP_1, A4D2P6)","pKd (IL16_4, Q14005)","pKd (LIMK2, P53671)","pKd (MAGI1_2, Q96QZ7)","pKd (MAST2, Q6P0Q8)","pKd (MPDZ_10, O75970)","pKd (NHERF3_1, Q5T2W1)","pKd (NHERF4_1, Q86UT5-2)","pKd (PDZRN4_1, Q6ZMN7)","pKd (RHPN1, Q8TCX5)","pKd (SCRIB_1, Q14160)",also measured
"RTQSSDSAYV [GJD2, Q9UKL4]",below the threshold,4.35,below the threshold,below the threshold,below the threshold,below the threshold,3.65,below the threshold,3.48,below the threshold,below the threshold,below the threshold,below the threshold,4.17,below the threshold,4.95,3.6,below the threshold,3.84,below the threshold,"pKd (SHANK1, Q9Y566): below the threshold; pKd (SNTA1, Q13424): below the threshold; pKd (SNTG1, Q9NSN8): below the threshold; pKd (SYNJ2BP, P57105): 3.66; pKd (TJP3_3, O95049): 3.71; pKd (TX1BP3, O14907): below the threshold"
"SRPTKGPTLL [PLEKHH2, Q8IVE3]",below the threshold,4.9,below the threshold,below the threshold,below the threshold,below the threshold,below the threshold,below the threshold,5.22,below the threshold,below the threshold,below the threshold,4.25,5.06,below the threshold,4.79,4.41,below the threshold,below the threshold,3.86,"pKd (SHANK1, Q9Y566): below the threshold; pKd (SNTA1, Q13424): below the threshold; pKd (SNTG1, Q9NSN8): below the threshold; pKd (SYNJ2BP, P57105): below the threshold; pKd (TJP3_3, O95049): below the threshold; pKd (TX1BP3, O14907): 4.01"
"LTAQEQPVYI [APBA1, Q02410]",below the threshold,below the threshold,below the threshold,below the threshold,4.06,below the threshold,below the threshold,below the threshold,below the threshold,below the threshold,3.57,below the threshold,below the threshold,below the threshold,below the threshold,below the threshold,below the threshold,below the threshold,below the threshold,below the threshold,"pKd (SHANK1, Q9Y566): below the threshold; pKd (SNTA1, Q13424): below the threshold; pKd (SNTG1, Q9NSN8): below the threshold; pKd (SYNJ2BP, P57105): below the threshold; pKd (TJP3_3, O95049): 3.67; pKd (TX1BP3, O14907): below the threshold"
